Data taken from patent US20230279091A1 (published 2023).
Substitutions are numbered along the chain they refer to.

B1: recombinant human TNFβ (ligand, UniProt P01374 35-205, looked up)
chain: LPGVGLTPSAAQTARQHPKMHLAHSTLKPAAHLIGDPSKQNSLLWRANTDRAFLQDGFSLSNNSLLVPTSGIYFVYSQVVFSGKAYSPKATSSPLYLAHEVQLFSSQYPFHVPLLSSQKMVYPGLQEPWLHSMYHGAAFQLTQGDQLSTHTDGIPHLVLSPSTVFFGAFAL
B2: humanized scFv 16-22-H05-sc02 (STR, structural graft) (scFv)
scFv: MDIQMTQSPSSLSASVGDRVTIKCQASQSIFSGLAWYQQKPGKAPKLLIYGASKLASGVPSRFSGSGSGTEFTLTISGLQPADFATYYCQSYYYSSSSSDGSYAFGGGTKLTVLGGGGGSGGGGSGGGGSGGGGSEVQLVESGGGLVQPGGSLRLSCKASGIDFNNYGIGWVRQAPGKGLEWITYIYPGFAITNFANSVKGRFTISSDNSKNTVYLQMNSLRAEDTAVYYCARDPVYATSSGYFDLWGQGTLVTVSS
notes: also called 16-22-H5-sc02; 16-22-H04-sc02 [sic]
B3: humanized scFv 16-22-H05-sc04 (CDR/STR) (scFv)
scFv: B2 scFv with K23T
notes: also called 16-22-05-sc04

Experiments:
[1] = target: B3; experiment: competition ELISA: unlabeled TNFβ against biotinylated TNFα on coated scFv
Description: (§1) For this purpose, the scFvs were coated on a 96-well Maxisorp ELISA plate at a concentration of 1 pg/ml. […] To control precision of the response, the dose-response curves were analyzed in duplicate.

[2] = target: B2; experiment: as above
Description: as §1

recombinant human TNFα [3] = target: T1, recombinant human TNFα (human, UniProt P01375 77-233); experiment: inhibition ELISA, blocking of biotinylated TNFα binding to coated TNFRI-Fc
T1 construct: also called tumor necrosis factor alpha; TNFαtrimer
Excerpt: For the first inhibition ELISA, the extracellular domain of TNFRI fused to the Fc region of human IgG (R&D Systems, Cat. No. 372-RI) was coated on a 96-well Maxisorp ELISA at a concentration of 0.5 pg/ml. […] All subsequent steps were identical for both assays.

recombinant human TNFα [4] = target: T1, recombinant human TNFα; experiment: cell-based or functional assay

T1 sequence (P01375 77-233 limits assumed): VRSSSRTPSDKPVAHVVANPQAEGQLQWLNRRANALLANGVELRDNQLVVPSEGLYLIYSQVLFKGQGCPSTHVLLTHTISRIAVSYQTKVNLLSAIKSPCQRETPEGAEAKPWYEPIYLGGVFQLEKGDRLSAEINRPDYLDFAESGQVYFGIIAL

## B1
[1]
  IC50: > 1.25 ng/mL
[2]
  IC50: > 1.25 ng/mL

## B2
Recombinant human TNFα [3]
  rel. IC50 (IC50 Infliximab/IC50 scFv, ng/mL): 3.5 ratio
  rel. IC90 (IC90 Infliximab/IC90 scFv, ng/mL): 2.4 ratio
Recombinant human TNFα [4]
  L929 assay, rel. IC50: 13.1 ratio IC50 Infliximab (ng/ml)/IC50 scFv (ng/mL)
  L929 assay, rel. IC90: 12.6 ratio IC90 Infliximab (ng/ml)/IC90 scFv (ng/mL)

## B3
Recombinant human TNFα [3]
  rel. IC50 (IC50 Infliximab/IC50 scFv, ng/mL): 2.8 ratio
  rel. IC90 (IC90 Infliximab/IC90 scFv, ng/mL): 2.1 ratio
Recombinant human TNFα [4]
  L929 assay, rel. IC50: 14.6 ratio IC50 Infliximab (ng/ml)/IC50 scFv (ng/mL)
  L929 assay, rel. IC90: 13.1 ratio IC90 Infliximab (ng/ml)/IC90 scFv (ng/mL)
